Measurements as given in IntAct's records for PubMed 20371349.

B1: Catenin delta-1 (Homo sapiens), O60716-29 (parent)
chain: MIGEEVPSDQYYWAPLAQHERGSLASLDSLRKGGPPPPNWRQPELPEVIAMLGFRLDAVKSNAAAYLQHLCYRNDKVKTDVRKLKGIPVLVGLLDHPKKEVHLGACGALKNISFGRDQDNKIAIKNCDGVPALVRLLRKARDMDLTEVITGTLWNLSSHDSIKMEIVDHALHALTDEVIIPHSGWEREPNEDCKPRHIEWESVLTNTAGCLRNVSSERSEARRKLRECDGLVDALIFIVQAEIGQKDSDSKLVENCVCLLRNLSYQVHREIPQAERYQEAAPNVANNTGPHAASCFGAKKGKGKKPIEDPANDTVDFPKRTSPARGYELLFQPEVVRIYISLLKESKTPAILEASAGAIQNLCAGRWTYGRYIRSALRQEKALSAIADLLTNEHERVVKAASGALRNLAVDARNKELIGKHAIPNLVKNLPGGQQNSSWNFSEDTVISILNTINEVIAENLEAAKKLRETQGIEKLVLINKSGNRSEKEVRAAALVLQTIWGYKELRKPLEKEGWKKSDFQVNLNNASRSQSSHSYDDSTLPLIDRNQKSDKKPDREEIQMSNMGSNTKSLDNNYSTPNERGDHNRTLDRSGDLGDMEPLKGTTPLMQKI
B2: Catenin delta-1 (Homo sapiens), O60716-5 (parent)
chain: MDDSEVESTASILASVKEQEAQFEKLTRALEEERRHVSAQLERVRVSPQDANPLMANGTLTRRHQNGRFVGDADLERQKFSDLKLNGPQDHSHLLYSTIPRMQEPGQIVETYTEEDPEGAMSVVSVETSDDGTTRRTETTVKKVVKTVTTRTVQPVAMGPDGLPVDASSVSNNYIQTLGRDFRKNGNGGPGPYVGQAGTATLPRNFHYPPDGYSRHYEDGYPGGSDNYGSLSRVTRIEERYRPSMEGYRAPSRQDVYGPQPQVRVGGSSVDLHRFHPEPYGLEDDQRSMGYDDLDYGMMSDYGTARRTGTPSDPRRRLRSYEDMIGEEVPSDQYYWAPLAQHERGSLASLDSLRKGGPPPPNWRQPELPEVIAMLGFRLDAVKSNAAAYLQHLCYRNDKVKTDVRKLKGIPVLVGLLDHPKKEVHLGACGALKNISFGRDQDNKIAIKNCDGVPALVRLLRKARDMDLTEVITGTLWNLSSHDSIKMEIVDHALHALTDEVIIPHSGWEREPNEDCKPRHIEWESVLTNTAGCLRNVSSERSEARRKLRECDGLVDALIFIVQAEIGQKDSDSKLVENCVCLLRNLSYQVHREIPQAERYQEAAPNVANNTGPHAASCFGAKKGKGKKPIEDPANDTVDFPKRTSPARGYELLFQPEVVRIYISLLKESKTPAILEASAGAIQNLCAGRWTYGRYIRSALRQEKALSAIADLLTNEHERVVKAASGALRNLAVDARNKELIGKHAIPNLVKNLPGGQQNSSWNFSEDTVISILNTINEVIAENLEAAKKLRETQGIEKLVLINKSGNRSEKEVRAAALVLQTIWGYKELRKPLEKEGWKKSDFQVNLNNASRSQSSHSYDDSTLPLIDRNQKSDKKPDREEIQMSNMGSNTKSLDNNYSTPNERGDHNRTLDRSGDLGDMEPLKGTTPLMQKI

Variants of: B1
Conditions: with cadh1_mouse Cdh1, P09803
Chain of cadh1_mouse Cdh1, P09803 (P09803 whole entry): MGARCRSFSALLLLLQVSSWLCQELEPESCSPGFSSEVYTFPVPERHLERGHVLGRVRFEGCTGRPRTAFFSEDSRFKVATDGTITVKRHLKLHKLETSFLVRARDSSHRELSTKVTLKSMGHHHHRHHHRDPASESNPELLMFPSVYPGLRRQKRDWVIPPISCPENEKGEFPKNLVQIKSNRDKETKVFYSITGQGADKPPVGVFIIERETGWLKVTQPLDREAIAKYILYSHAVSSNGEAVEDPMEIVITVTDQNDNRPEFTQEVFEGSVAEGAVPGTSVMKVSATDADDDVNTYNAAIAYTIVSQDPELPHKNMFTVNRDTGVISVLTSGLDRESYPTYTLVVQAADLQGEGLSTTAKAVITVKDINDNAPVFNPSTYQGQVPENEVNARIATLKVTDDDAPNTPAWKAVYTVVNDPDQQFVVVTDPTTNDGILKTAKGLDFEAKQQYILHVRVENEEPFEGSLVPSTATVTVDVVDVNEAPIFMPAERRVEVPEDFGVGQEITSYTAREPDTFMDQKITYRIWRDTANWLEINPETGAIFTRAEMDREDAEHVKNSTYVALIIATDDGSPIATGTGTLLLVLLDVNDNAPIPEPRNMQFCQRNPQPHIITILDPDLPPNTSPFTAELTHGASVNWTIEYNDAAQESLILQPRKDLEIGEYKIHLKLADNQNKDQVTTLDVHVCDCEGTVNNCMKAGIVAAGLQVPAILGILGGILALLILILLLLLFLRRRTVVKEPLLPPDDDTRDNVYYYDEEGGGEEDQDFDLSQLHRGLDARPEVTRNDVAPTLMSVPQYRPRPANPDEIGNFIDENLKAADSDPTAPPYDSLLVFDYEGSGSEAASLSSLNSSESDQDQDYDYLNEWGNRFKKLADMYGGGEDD

effect of a mutation on the interaction | Variant
decreasing interaction | W154A
disrupting interaction | N155A
disrupting interaction | K121M
disrupting interaction | K78M

Variants of: B2
Conditions: with cadh1_human CDH1, P12830
Chain of cadh1_human CDH1, P12830 (P12830 whole entry): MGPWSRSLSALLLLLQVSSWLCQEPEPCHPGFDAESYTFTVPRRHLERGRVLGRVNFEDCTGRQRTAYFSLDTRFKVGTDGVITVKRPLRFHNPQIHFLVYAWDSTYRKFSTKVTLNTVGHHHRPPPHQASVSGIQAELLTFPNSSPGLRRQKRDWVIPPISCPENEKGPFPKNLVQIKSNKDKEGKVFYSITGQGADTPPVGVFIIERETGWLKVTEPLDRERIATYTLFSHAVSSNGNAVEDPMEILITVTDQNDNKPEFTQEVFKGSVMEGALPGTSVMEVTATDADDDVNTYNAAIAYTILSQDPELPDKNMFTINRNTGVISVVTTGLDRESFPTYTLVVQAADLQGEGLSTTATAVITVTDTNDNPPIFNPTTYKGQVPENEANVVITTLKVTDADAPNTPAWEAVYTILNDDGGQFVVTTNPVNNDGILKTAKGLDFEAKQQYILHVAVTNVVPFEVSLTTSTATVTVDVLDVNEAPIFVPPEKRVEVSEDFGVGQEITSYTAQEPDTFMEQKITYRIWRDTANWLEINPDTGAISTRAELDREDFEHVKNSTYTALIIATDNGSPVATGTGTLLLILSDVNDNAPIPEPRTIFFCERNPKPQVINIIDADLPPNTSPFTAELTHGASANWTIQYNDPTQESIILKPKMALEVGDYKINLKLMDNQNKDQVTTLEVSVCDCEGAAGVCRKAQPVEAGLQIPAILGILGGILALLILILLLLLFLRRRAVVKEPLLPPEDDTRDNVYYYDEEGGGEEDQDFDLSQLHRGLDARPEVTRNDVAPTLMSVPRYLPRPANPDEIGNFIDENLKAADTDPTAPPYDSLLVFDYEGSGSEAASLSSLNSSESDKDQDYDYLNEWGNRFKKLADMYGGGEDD

effect of a mutation on the interaction | Variant
decreasing interaction | N478A
decreasing interaction | K401M
